Measured values reported in the supplement of paper PMC7125110.
± gives the standard error. This sample holds only a part of the variants without activity.

B1: glmS ribozyme (parent)
chain: AUAAAAGCGCCAGAACUACAGAAAUGUAGUUGACGAGGAGGAGGUUUAUCGAAUUUUCGGCGGAUGCCUCCAAA

Legend:
Settings in all cases: with glucosamine-6-phosphate
glucosamine-6-phosphate [1] = variants of: B1; test: self-cleavage kobs at 640 uM GlcN6P; higher = faster cleavage; RNA array
Procedure, shortened: (§1)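 The measurements used barcoded ribozyme variants on sequenced MiSeq chips, transcribed in situ by E. coli RNA polymerase and tracked at 37 °C with a hybridised Cy3 probe. Glucosamine-6-phosphate, 40 μM to 10 mM in HEPES/KCl/Mg(OAc)2 buffer, was flowed in while tiles were imaged over ~14 h. Baseline-normalised signals, also normalised to non-cleaving reference variants, gave per-tile medians that were fit to one- or two-exponential decays for kobs. kcat and KM resulted from weighted Michaelis–Menten fits across concentrations.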

glucosamine-6-phosphate [2] = variants of: B1; test: self-cleavage kobs at 2500 uM GlcN6P; higher = faster cleavage; RNA array
Procedure, shortened: as §1

glucosamine-6-phosphate [3] = variants of: B1; test: self-cleavage kobs at 10000 uM GlcN6P; higher = faster cleavage; RNA array
Procedure, shortened: as §1

| Variant | self-cleavage kobs at 640 uM GlcN6P (glucosamine-6-phosphate [1]) [s⁻¹] | self-cleavage kobs at 2500 uM GlcN6P (glucosamine-6-phosphate [2]) [s⁻¹] | self-cleavage kobs at 10000 uM GlcN6P (glucosamine-6-phosphate [3]) [s⁻¹] |
| --- | --- | --- | --- |
| A42U C67A U69G C71U | 4.51e-05 ± 2e-05 | 7.23e-05 ± 1.9e-05 | – |
| A39G A53C C67U | 0.00111 ± 0.00036 | 0.000701 ± 0.00027 | – |
| G13C G37U A39U | < 1e-05 | < 1e-05 | – |
| A12C U30C A39U | 0.000221 ± 4.3e-05 | 0.000452 ± 0.00012 | – |
| G60U U69A | < 1e-05 | < 1e-05 | < 1e-05 |
| A15G A39C A53U | 0.000793 ± 0.00012 | 0.00236 ± 0.00069 | – |
| G7A G40U U45G C58G | < 1e-05 | < 1e-05 | – |
| G60C C68G C70U | < 1e-05 | < 1e-05 | – |
| G29A C50U C68A | 4.21e-05 ± 1.6e-05 | – | – |
| C11U C16U C71G | 6.83e-05 ± 1.8e-05 | 0.000127 ± 3.7e-05 | – |
| U46G G63A C70G | 5.25e-05 ± 2.2e-05 | – | – |
| C10A G13C C61G G66A C70A | 0.000102 ± 4.5e-05 | – | – |
| C8U A15G C16U U55C | < 1e-05 | – | – |
| C10U C16A A52U | < 1e-05 | – | – |
| A14U G29A G62A U69G | 7.37e-05 ± 2.9e-05 | – | – |
| C34A C67A | < 1e-05 | – | < 1e-05 |
| G13A A48U U54C | < 1e-05 | – | – |
| A6G C67G C68A | 7.11e-05 ± 3.1e-05 | – | – |
| G29C U45A C67A | 0.000165 ± 4.8e-05 | – | – |
| G7U G40U C50G | < 1e-05 | < 1e-05 | – |
| A6U G29U G32U A42G U47A C71G | < 1e-05 | < 1e-05 | – |
| A6C C8G C11A A52C U57G G63C U69G | 0.0016 ± 0.00077 | – | – |

| Variant | self-cleavage kobs at 640 uM GlcN6P (glucosamine-6-phosphate [1]) [s⁻¹] | self-cleavage kobs at 2500 uM GlcN6P (glucosamine-6-phosphate [2]) [s⁻¹] | self-cleavage kobs at 10000 uM GlcN6P (glucosamine-6-phosphate [3]) [s⁻¹] |
| --- | --- | --- | --- |
| A6U G35C A64C | < 1e-05 | < 1e-05 | – |
| U31A A42U U57A A64G C71A | < 1e-05 | – | – |
| A6C C16U G40C U47C G60U | < 1e-05 | < 1e-05 | – |
| U31A A33G U49C C58G | < 1e-05 | – | – |
| G35A G41U U46A | < 1e-05 | < 1e-05 | – |
| G7C G43U A53C G66U | < 1e-05 | – | – |
| C8G U54C G60A | < 1e-05 | < 1e-05 | – |
| A12C G66U C70G | 7.67e-05 ± 2.5e-05 | – | – |
| G41A C58A U69A | < 1e-05 | < 1e-05 | – |
| G43C G44U G60U | < 1e-05 | – | – |
| C10A A14C A64U | < 1e-05 | < 1e-05 | – |
| G32C A33U C68U C71G | < 1e-05 | < 1e-05 | – |
| A6U C50A U65A U69C | 8.83e-05 ± 3.7e-05 | – | – |
| U45C U46G C67G | 9.48e-05 ± 2.9e-05 | – | – |
| U45G G60U G62C C70U | < 1e-05 | < 1e-05 | – |
| A12C U46A G51U U54G G60A C61A C70A | < 1e-05 | – | – |
| C11G A15C G32U A33C C50U C71A | 0.000149 ± 4e-05 | – | – |
| G7U U30A G51A | < 1e-05 | – | – |
| G32C G63A U65A | < 1e-05 | < 1e-05 | – |
| U31A U55G C67U | 0.000859 ± 0.00023 | 0.000519 ± 0.00025 | – |
| G13C C16U A36G U69C | < 1e-05 | – | – |
| C16U G59C U65G | < 1e-05 | < 1e-05 | – |

| Variant | self-cleavage kobs at 640 uM GlcN6P (glucosamine-6-phosphate [1]) [s⁻¹] | self-cleavage kobs at 2500 uM GlcN6P (glucosamine-6-phosphate [2]) [s⁻¹] | self-cleavage kobs at 10000 uM GlcN6P (glucosamine-6-phosphate [3]) [s⁻¹] |
| --- | --- | --- | --- |
| A12G U31G U55A C67U | 5.14e-05 ± 1.3e-05 | 0.00011 ± 1.9e-05 | 0.000176 ± 3.2e-05 |
| C16U U46C C50U | < 1e-05 | – | – |
| A6U U69G | 0.000103 ± 2.3e-05 | 4.72e-05 ± 1.4e-05 | – |
| G43U G66U C71G | < 1e-05 | < 1e-05 | – |
| U30A G38C A39U | < 1e-05 | – | – |
| U31G C58G A64U | < 1e-05 | – | – |
| C16U A39U A48U | 3.71e-05 ± 1.6e-05 | 7.54e-05 ± 1.5e-05 | – |
| U47G A52U C68G | 0.000113 ± 4.9e-05 | – | – |
| U57G G62C C68U C70G | 4.22e-05 ± 2e-05 | – | – |
| G7U C10U A52U | < 1e-05 | – | – |
| G44U C67U C71U | 0.00022 ± 6.3e-05 | 0.00069 ± 0.00025 | – |
| U55A U57G | 2.18e-05 ± 1e-05 | 2.56e-05 ± 7.4e-06 | 7.86e-05 ± 1.2e-05 |
| G7U A14C G37C | < 1e-05 | < 1e-05 | – |
| C8G G13C G40A U56A G59U | < 1e-05 | – | – |
| G13U G66C U69G | 7.62e-05 ± 2.3e-05 | – | – |
| U30G A42G U45C C70A C71A | < 1e-05 | – | – |
| U30G U45A G59C | < 1e-05 | < 1e-05 | – |
| C10U A14U C16U C68G | 0.00169 ± 0.00051 | 0.000319 ± 0.00011 | – |
| A39G C67G C68G | 9.65e-05 ± 2.5e-05 | 7.78e-05 ± 1.7e-05 | – |
| C10U C16U A39U G60U C67G U69G | < 1e-05 | < 1e-05 | – |
| C10U A33G G40U | < 1e-05 | – | – |
| A1U U2G A3G C70A | 0.000245 ± 0.00011 | – | – |
